One block for each binder: values may come before it.
Target: C3 convertase complex (UniProt P01024 23-1663; P00751 260-764)
Assay: cell-based or functional assay
Wherever C3 convertase activity % of the control is given: test concentration or dose not given here.

Chain of C3 convertase complex (P01024 23-1663, chain 1 of 2): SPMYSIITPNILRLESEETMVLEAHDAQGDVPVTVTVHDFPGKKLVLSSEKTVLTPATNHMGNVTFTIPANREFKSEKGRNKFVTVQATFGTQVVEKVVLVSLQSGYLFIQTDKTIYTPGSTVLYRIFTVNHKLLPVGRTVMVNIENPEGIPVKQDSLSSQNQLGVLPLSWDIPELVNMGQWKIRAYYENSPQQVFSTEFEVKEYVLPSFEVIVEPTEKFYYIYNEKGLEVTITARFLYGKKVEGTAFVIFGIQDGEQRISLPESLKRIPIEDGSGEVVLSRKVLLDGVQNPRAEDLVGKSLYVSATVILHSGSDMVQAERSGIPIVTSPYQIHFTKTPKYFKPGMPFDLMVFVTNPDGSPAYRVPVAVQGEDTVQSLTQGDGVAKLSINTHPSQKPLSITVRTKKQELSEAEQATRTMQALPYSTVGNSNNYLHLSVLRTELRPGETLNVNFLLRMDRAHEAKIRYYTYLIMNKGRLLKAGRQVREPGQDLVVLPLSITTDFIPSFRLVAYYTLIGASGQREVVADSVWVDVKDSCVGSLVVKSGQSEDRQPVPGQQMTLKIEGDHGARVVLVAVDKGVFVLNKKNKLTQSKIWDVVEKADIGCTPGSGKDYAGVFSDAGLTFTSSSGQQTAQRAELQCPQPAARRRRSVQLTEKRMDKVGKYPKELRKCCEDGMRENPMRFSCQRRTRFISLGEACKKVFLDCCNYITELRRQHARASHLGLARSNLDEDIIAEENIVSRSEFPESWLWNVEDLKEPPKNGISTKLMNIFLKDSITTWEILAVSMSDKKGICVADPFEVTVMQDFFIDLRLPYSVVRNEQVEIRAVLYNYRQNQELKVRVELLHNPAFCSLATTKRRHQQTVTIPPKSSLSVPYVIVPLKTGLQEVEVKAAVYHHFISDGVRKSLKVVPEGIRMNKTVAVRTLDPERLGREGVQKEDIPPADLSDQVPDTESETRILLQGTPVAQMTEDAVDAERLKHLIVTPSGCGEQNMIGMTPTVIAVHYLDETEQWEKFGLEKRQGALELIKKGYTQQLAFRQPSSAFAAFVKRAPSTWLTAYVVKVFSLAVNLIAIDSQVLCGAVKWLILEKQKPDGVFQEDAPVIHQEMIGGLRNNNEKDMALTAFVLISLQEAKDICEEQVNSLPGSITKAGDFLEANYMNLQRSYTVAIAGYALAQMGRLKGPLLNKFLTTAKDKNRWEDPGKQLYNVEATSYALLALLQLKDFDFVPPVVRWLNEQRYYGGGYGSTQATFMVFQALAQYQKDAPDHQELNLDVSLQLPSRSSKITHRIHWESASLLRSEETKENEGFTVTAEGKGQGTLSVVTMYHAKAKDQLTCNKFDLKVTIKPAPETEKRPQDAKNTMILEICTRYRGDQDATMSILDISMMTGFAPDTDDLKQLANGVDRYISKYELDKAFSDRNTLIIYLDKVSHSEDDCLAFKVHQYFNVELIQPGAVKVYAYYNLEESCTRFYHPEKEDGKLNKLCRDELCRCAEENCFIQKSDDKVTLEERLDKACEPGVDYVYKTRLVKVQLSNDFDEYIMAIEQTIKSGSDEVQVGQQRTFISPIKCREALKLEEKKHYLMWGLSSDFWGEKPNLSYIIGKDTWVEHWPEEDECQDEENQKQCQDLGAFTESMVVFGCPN
Chain of C3 convertase complex (P00751 260-764, chain 2 of 2): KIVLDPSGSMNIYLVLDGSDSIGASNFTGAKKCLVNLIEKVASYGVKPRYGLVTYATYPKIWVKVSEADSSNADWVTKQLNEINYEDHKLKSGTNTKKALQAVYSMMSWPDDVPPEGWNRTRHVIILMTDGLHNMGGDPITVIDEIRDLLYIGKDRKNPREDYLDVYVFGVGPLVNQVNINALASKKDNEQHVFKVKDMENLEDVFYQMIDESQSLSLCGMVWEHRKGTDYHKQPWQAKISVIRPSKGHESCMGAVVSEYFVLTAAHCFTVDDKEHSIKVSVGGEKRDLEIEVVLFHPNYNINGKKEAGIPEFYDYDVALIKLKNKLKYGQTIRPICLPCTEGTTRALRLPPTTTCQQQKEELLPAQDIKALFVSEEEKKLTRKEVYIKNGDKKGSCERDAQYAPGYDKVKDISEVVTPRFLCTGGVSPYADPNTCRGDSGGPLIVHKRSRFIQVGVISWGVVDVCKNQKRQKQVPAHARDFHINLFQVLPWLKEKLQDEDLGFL

B4: pCEP4-1NT4-16CT20 (other)
chain: EDCNELPPRRNTEILTGSWSDQTYPEGTQAIYKCRPGYRSLGNVIMVCRKGEWVALNPLRKCQKRPCGHPGDTPFGTFTLTGGNVFEYGVKAVYTCNEGYQLLGEINYRECDTDGWTNDIPICEVVKCLPVTAPENGKIVSSAMEPDREYHFGQAVRFVCNSGYKIEGDEEMHCSDDGFWSKEKPKCVEISCKSPDVINGSPISQKIIYKENERFQYKCNMGYEYSERGDAVCTESGWRPLPSCEEKSGASGCKSPPEISHGVVAHMSDSYQYGEEVTYKCFEGFGIDGPAIAKCLGEKWSHPPSCIKTDCLSLPSFENAIPMGEKKDVYKAGEQVTYTCATYYKMDGASNVTCINSRWTGRPTCRDTSCVNPPTVQNAYIVSRQMSKYPSGERVRYQCRSPYEMFGDEEVMCLNGNWTEPPQCKDSTGKCGPPPPIDNGDITSFPLSVYAPASSVEYQCQNLYQLEGNKRITCRNGQWSEPPKCLHPCVISREIMENYNIALRWTAKQKLYSRTGESVEFVCKRGYRLSSRSHTLRTTCWDGKLEYPTCAKRGGSGHHHHHH
C3 convertase activity % of the control: 239 % of the control
C3 convertase activity IC50: 0.0281 µg/mL

B5: pCEP4-1NT4-19CT20 (other)
chain: EDCNELPPRRNTEILTGSWSDQTYPEGTQAIYKCRPGYRSLGNVIMVCRKGEWVALNPLRKCQKRPCGHPGDTPFGTFTLTGGNVFEYGVKAVYTCNEGYQLLGEINYRECDTDGWTNDIPICEVVKCLPVTAPENGKIVSSAMEPDREYHFGQAVRFVCNSGYKIEGDEEMHCSDDGFWSKEKPKCVEISCKSPDVINGSPISQKIIYKENERFQYKCNMGYEYSERGDAVCTESGWRPLPSCEEKSGASGCGPPPPIDNGDITSFPLSVYAPASSVEYQCQNLYQLEGNKRITCRNGQWSEPPKCLHPCVISREIMENYNIALRWTAKQKLYSRTGESVEFVCKRGYRLSSRSHTLRTTCWDGKLEYPTCAKRGGSGHHHHHH
C3 convertase activity % of the control: 73 % of the control
C3 convertase activity IC50: 0.0916 µg/mL

The next lines start with the values.

C3 convertase activity % of the control: 104 % of the control
C3 convertase activity IC50: 0.0645 µg/mL
B1: pCEP4-1NT7-14CT20 (other)
chain: EDCNELPPRRNTEILTGSWSDQTYPEGTQAIYKCRPGYRSLGNVIMVCRKGEWVALNPLRKCQKRPCGHPGDTPFGTFTLTGGNVFEYGVKAVYTCNEGYQLLGEINYRECDTDGWTNDIPICEVVKCLPVTAPENGKIVSSAMEPDREYHFGQAVRFVCNSGYKIEGDEEMHCSDDGFWSKEKPKCVEISCKSPDVINGSPISQKIIYKENERFQYKCNMGYEYSERGDAVCTESGWRPLPSCEEKSCDNPYIPNGDYSPLRIKHRTGDEITYQCRNGFYPATRGNTAKCTSTGWIPAPRCTLKPCDYPDIKHGGLYHENMRRPYFPVAVGKYYSYYCDEHFETPSGSYWDHIHCTQDGWSPAVPCLRKCYFPYLENGYNQNYGRKFVQGKSIDVACHPGYALPKAQTTVTCMENGWSPTPRCIRVKTGASGCPPPPQIPNSHNMTTTLNYRDGEKVSVLCQENYLIQEGEEITCKDGRWQSIPLCVEKIPCSQPPQIEHGTINSSRSSQESYAHGTKLSYTCEGGFRISEENETTCYMGKWSSPPQCEGLPCKSPPEISHGVVAHMSDSYQYGEEVTYKCFEGFGIDGPAIAKCLGEKWSHPPSCIKTDCLSLPSFENAIPMGEKKDVYKAGEQVTYTCATYYKMDGASNVTCINSRWTGRPTCRDTSCVNPPTVQNAYIVSRQMSKYPSGERVRYQCRSPYEMFGDEEVMCLNGNWTEPPQCKDSTGKCGPPPPIDNGDITSFPLSVYAPASSVEYQCQNLYQLEGNKRITCRNGQWSEPPKCLHPCVISREIMENYNIALRWTAKQKLYSRTGESVEFVCKRGYRLSSRSHTLRTTCWDGKLEYPTCAKRGGSGHHHHHH

C3 convertase activity % of the control: 72 % of the control
C3 convertase activity IC50: 0.542 µg/mL
B2: pCEP4-1NT7-8CT20 (other)
chain: EDCNELPPRRNTEILTGSWSDQTYPEGTQAIYKCRPGYRSLGNVIMVCRKGEWVALNPLRKCQKRPCGHPGDTPFGTFTLTGGNVFEYGVKAVYTCNEGYQLLGEINYRECDTDGWTNDIPICEVVKCLPVTAPENGKIVSSAMEPDREYHFGQAVRFVCNSGYKIEGDEEMHCSDDGFWSKEKPKCVEISCKSPDVINGSPISQKIIYKENERFQYKCNMGYEYSERGDAVCTESGWRPLPSCEEKSCDNPYIPNGDYSPLRIKHRTGDEITYQCRNGFYPATRGNTAKCTSTGWIPAPRCTLKPCDYPDIKHGGLYHENMRRPYFPVAVGKYYSYYCDEHFETPSGSYWDHIHCTQDGWSPAVPCLRKCYFPYLENGYNQNYGRKFVQGKSIDVACHPGYALPKAQTTVTCMENGWSPTPRCIRVKTGASGCSKSSIDIENGFISESQYTYALKEKAKYQCKLGYVTADGETSGSITCGKDGWSAQPTCIKSCDIPVFMNARTKNDFTWFKLNDTLDYECHDGYESNTGSTTGSIVCGYNGWSDLPICYERECELPKIDVHLVPDRKKDQYKVGEVLKFSCKPGFTIVGPNSVQCYHFGLSPDLPICKEQVQSCGPPPELLNGNVKEKTKEEYGHSEVVEYYCNPRFLMKGPNKIQCVDGEWTTLPVCIVEESTCGDIPELEHGWAQLSSPPYYYGDSVEFNCSESFTMIGHRSITCIHGVWTQLPQCVAIDKLKKCKSSNLIILEEHLKNKKEFDHNSNIRYRCRGKEGWIHTVCINGRWDPEVNCSMAQIQLCPPPPQIPNSHNMTTTLNYRDGEKVSVLCQENYLIQEGEEITCKDGRWQSIPLCVEKIPCSQPPQIEHGTINSSRSSQESYAHGTKLSYTCEGGFRISEENETTCYMGKWSSPPQCEGLPCKSPPEISHGVVAHMSDSYQYGEEVTYKCFEGFGIDGPAIAKCLGEKWSHPPSCIKTDCLSLPSFENAIPMGEKKDVYKAGEQVTYTCATYYKMDGASNVTCINSRWTGRPTCRDTSCVNPPTVQNAYIVSRQMSKYPSGERVRYQCRSPYEMFGDEEVMCLNGNWTEPPQCKDSTGKCGPPPPIDNGDITSFPLSVYAPASSVEYQCQNLYQLEGNKRITCRNGQWSEPPKCLHPCVISREIMENYNIALRWTAKQKLYSRTGESVEFVCKRGYRLSSRSHTLRTTCWDGKLEYPTCAKRGGSGHHHHHH

C3 convertase activity % of the control: 77 % of the control
C3 convertase activity IC50: 0.471 µg/mL
B3: pCEP4-1NT8-11CT20 (other)
chain: EDCNELPPRRNTEILTGSWSDQTYPEGTQAIYKCRPGYRSLGNVIMVCRKGEWVALNPLRKCQKRPCGHPGDTPFGTFTLTGGNVFEYGVKAVYTCNEGYQLLGEINYRECDTDGWTNDIPICEVVKCLPVTAPENGKIVSSAMEPDREYHFGQAVRFVCNSGYKIEGDEEMHCSDDGFWSKEKPKCVEISCKSPDVINGSPISQKIIYKENERFQYKCNMGYEYSERGDAVCTESGWRPLPSCEEKSCDNPYIPNGDYSPLRIKHRTGDEITYQCRNGFYPATRGNTAKCTSTGWIPAPRCTLKPCDYPDIKHGGLYHENMRRPYFPVAVGKYYSYYCDEHFETPSGSYWDHIHCTQDGWSPAVPCLRKCYFPYLENGYNQNYGRKFVQGKSIDVACHPGYALPKAQTTVTCMENGWSPTPRCIRVKTCSKSSIDIENGFISESQYTYALKEKAKYQCKLGYVTADGETSGSITCGKDGWSAQPTCIKSGASGCGPPPELLNGNVKEKTKEEYGHSEVVEYYCNPRFLMKGPNKIQCVDGEWTTLPVCIVEESTCGDIPELEHGWAQLSSPPYYYGDSVEFNCSESFTMIGHRSITCIHGVWTQLPQCVAIDKLKKCKSSNLIILEEHLKNKKEFDHNSNIRYRCRGKEGWIHTVCINGRWDPEVNCSMAQIQLCPPPPQIPNSHNMTTTLNYRDGEKVSVLCQENYLIQEGEEITCKDGRWQSIPLCVEKIPCSQPPQIEHGTINSSRSSQESYAHGTKLSYTCEGGFRISEENETTCYMGKWSSPPQCEGLPCKSPPEISHGVVAHMSDSYQYGEEVTYKCFEGFGIDGPAIAKCLGEKWSHPPSCIKTDCLSLPSFENAIPMGEKKDVYKAGEQVTYTCATYYKMDGASNVTCINSRWTGRPTCRDTSCVNPPTVQNAYIVSRQMSKYPSGERVRYQCRSPYEMFGDEEVMCLNGNWTEPPQCKDSTGKCGPPPPIDNGDITSFPLSVYAPASSVEYQCQNLYQLEGNKRITCRNGQWSEPPKCLHPCVISREIMENYNIALRWTAKQKLYSRTGESVEFVCKRGYRLSSRSHTLRTTCWDGKLEYPTCAKRGGSGHHHHHH
